Seven molecules from paper PMC4333400 (Nucleic Acids Research, 2015) can be followed below.

Like-named read-outs stand apart in the source and are kept apart here.

Data set [1] has as its target EcMazE full-length (Escherichia coli, UniProt P0AE72 1-82). Kind of data set: ITC.
For data set [2], the target named is T1, EcMazE1-50 (Escherichia coli, UniProt P0AE72 1-50).
T1 chain: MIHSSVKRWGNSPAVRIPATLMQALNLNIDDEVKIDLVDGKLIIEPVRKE
Kind of data set: ITC.

Data set [3] concerns the molecule itself. Kind of data set: NMR solution structure.
Data set [4] has as its target T1, EcMazE1-50. Description: ITC.
The target of data set [5] is EcMazE full-length;EcMazF (Escherichia coli;Escherichia coli, UniProt P0AE72;P0AE70 1-82;1-111, |). Kind of data set: EMSA.
The target in data set [6] is T1, EcMazE1-50. Kind of data set: NMR.

Chain of EcMazE full-length;EcMazF (P0AE70 whole entry, one chain of several): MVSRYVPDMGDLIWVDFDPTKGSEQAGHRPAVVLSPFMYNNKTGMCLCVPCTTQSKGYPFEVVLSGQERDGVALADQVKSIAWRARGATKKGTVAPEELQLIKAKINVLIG
Chain of EcMazE full-length (P0AE72 whole entry): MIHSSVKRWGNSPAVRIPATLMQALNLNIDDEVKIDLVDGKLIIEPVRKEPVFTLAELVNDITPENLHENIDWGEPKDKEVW

B1: DNA 'a' (14 bp) (dsDNA)
DNA 1: TTGATATATACTGT
DNA 2: ACAGTATATATCAA
For the molecule B1, the Kd in data set [1] was 5100 ± 200 nM; in data set [2], 5600 ± 300 nM.

B2: truncated EcMazE^1–50 (N-terminal DNA binding domain of Escherichia coli antitoxin MazE) (domain or fragment)
chain: T1 chain
With B2, the “stoichiometry N” value in data set [3] came out at 2.

B3: DNA 'b' (dsDNA)
DNA 1: ATATACTGTATCTACATAT
DNA 2: ATATGTAGATACAGTATAT
In the case of B3, the Kd in data set [2] stood at 2100 ± 600 nM.

B4: DNA 'cab' (dsDNA)
DNA 1: CTCGTATCTACAATGTAGATTGATATATACTGTATCTACATATGATAGCGT
DNA 2: ACGCTATCATATGTAGATACAGTATATATCAATCTACATTGTAGATACGAG
Consider B4, for which binding in data set [4] was characterised by a dissociation constant (Kd) of 600 ± 500 nM.

B5: DNA 'c' (dsDNA)
DNA 1: GTATCTACAATGTAGATTG
DNA 2: CAATCTACATTGTAGATAC
As to B5, binding in data set [2] was put at a Kd of 600 ± 200 nM.

B6: DNA 'a' (EMSA probe) (dsDNA)
DNA 1: TTGATATATACTGT
DNA 2: ACAGTATATATCAA
Consider B6, for which the binding result in data set [5] is “binds”.

B7: DNA 'a' (15 bp, altered ends) (dsDNA)
DNA 1: CGTGATATATACTGC
DNA 2: GCAGTATATATCACG
With B7, the binding result in data set [6] is “binds”.
